Laboratory results from US20120196760A1, “METHODS AND COMPOSITIONS FOR IDENTIFYING MODULATORS OF ANTI-TETHERIN ACTIVITY TO INHIBIT P[…] VIRUSES” (CHILDRENS HOSPITAL LOS ANGELES, priority 2008, published 2012).

Test system: HIV-1 VLPs
Assay: HIV-1 VLP release from cells expressing Tetherin constructs (Western blot, % VLP release)
Format: cell-based
Conditions: Tetherin expressed alone, no anti-Tetherin; FIG. 9B

B1: full-length human Tetherin: human cellular protein that tethers newly budded HIV particles at the cell surface and restricts virus release (protein)
chain: MASTSYDYCRVPMEDGDKRCKLLLGIGILVLLIIVILGVPLIIFTIKANSEACRDGLRAVMECRNVTHLLQQELTEAQKGFQDVEAQAATCNHTVMALMASLDAEKAQGQKKVEELEGEITTLNHKLQDASAEVERLRRENQVLSVRIADKKYYPSSQDSS
In the case of B1, the “reduction of release of Virus-Like Particles (VLPs)” value is reported as “about 95%”.
